Earlier results, collected in patent US20020094542A1, “Drugs and methods for treating cancer” (priority 1989, published 2002).

Settings: patients with kidney transplants

OKT3: monoclonal heterologous AB used clinically in patients with kidney transplants
side-effects of treatment: low (flu-like)
